The DeepSol protein solubility set

Experiment: soluble on expression in E. coli; label from the status in PepcDB or PDB records

Sequence	soluble on expression in E. coli
SVFKFIDLPQEEPRPSGGGKVTDLVLDNPHAQDCWPNQGHMDVQGLTVKYTEAGRSVLQNLSFTVEAGQSVGVLGRTGSGKSTLLSALLRLASTDGEISIDGVSWNSVTLQTWRKAFGVVPQKIFILTGTFRMNLDPHACHSDEELWRVAEEVGLKSVIEQFPDKLDFQLEDGGYVLSNGHKQLMCLARSILSKARILLLDEPSAYLDPITLQVLRKTLKQSFSNCTVILSEHRVEPLLECQSFLMIEGSSMKRYDSIQKLLNETSHLKQAISAAERLKLFPLHRLNSSKRPPQSQQPKITALQEEAEDEVQDTRL	not soluble
SYTLPSLPYAYDALEPHFDKQTMEIHHTKHHQTYVNNANAALESLPEFANLPVEELITKLDQLPADKKTVLRNNAGGHANHSLFWKGLKKGTTLQGDLKAAIERDFGSVDNFKAEFEKAAASRFGSGWAWLVLKGDKLAVVSTANHDSPLMGEAISGASGFPIMGLDVWEHAYYLKFQNRRPDYIKEFWNVVNWDEAAARFAAKK	soluble
TAGFYINSEISDYFWIKTEFNYVNRGYTHKEAGKTLKTNYYCIDVYPVTPAFHYKGAQIFAGPSVTLLVASNRDTLIGGEVKKIADNKLDGINRYDIGIMAGVEYEFNFGLNIGVRMVRGFTSLYEPVNSIQTQWFNQTYLFTLGYSI	not soluble
TDFIWNLTWMGSTVTNKVLKLTGESPEIIKGVFSIKEGMPINTYYMAKSAGVDPATGAQLYWVYDKDDNGNITNEYISSDYQKAANSKYYSGSRIPDLYGSINTDFSYKNFDLSILGTYSIGGKVYDSLYAGSMEVMYAGNTWNKHALRRWQQPGDITDVPRIQIGGSYTTSDRFLVDASYFAIKNITLGYTIPKQWLKKAGLESVRIFGSVDNLALFSHLDGMDPQYNFKGETDYSYAPNKTYSVGFEINF	not soluble
TDKTFFDAKMEEQAKRHAQHNNTESNLEPDIKNAPGGIRDMNQIGWIAKRHFRVNRIYDLVHLGFITEYELKVLEEAESFLWEIRHHLHLLSKRDENRLLFDHQREIAAKFGYTRAEGQPVNFAVEQFMKRYYRTAQQVSTLNEMLLAYFNESVITPRLPNYERKIEEINENFKLVDGKLAVQHHKVFSENPSAILELFYLLANHPEIEGIRARTLRLLIMAAKRID	not soluble
TDQGSTGIYYISIEGLVYPIRLEKEYINSFSLSPDEQHFIASVTKPDRPSELYSIPLGQEEKQLTGANDKFVREHTISIPEEIQYATEDGVMVNGWLMRPAQMEGETTYPLILNIHGGPHMMYGHTYFHEFQVLAAKGYAVVYINPRGSHGYGQEFVNAVRGDYGGKDYDDVMQAVDEAIKRDPHIDPKRLGVTGGSYGGFMTNWIVGQTNRFKAAVTQRSISNWISFHGVSDIGYFFTDWQLEHDMFEDTEKLWDRSPLKYAANVETPLLILHGERDDRCPIEQAEQLFIALKKMGKETKLVRFPNASHNLSRTGHPRQRIKRLNYISSWFDQHL	not soluble
TDTLTRDNGAVVGDNQNSQTAGAQGPVLLQDVQLLQKLQRFDRERIPERVVHARGTGVKGEFTASADISDLSKATVFKSGEKTPVFVRFSSVVHGNHSPETLRDPHGFATKFYTADGNWDLVGNNFPTFFIRDAIKFPDMVHAFKPDPRTNLDNDSRRFDFFSHVPEATRTLTLLYSNEGTPAGYRFMDGNGVHAYKLVNAKGEVHYVKFHWKSLQGIKNLDPKEVAQVQSKDYSHLTNDLVGAIKKGDFPKWDLYVQVLKPEELAKFDFDPLDATKIWPDVPEKKIGQMVLNKNVDNFFQETEQVAMAPANLVPGIEPSEDRLLQGRVFSYADTQMYRLGANGLSLPVNQPKVAVNNGNQDGALNTGHTTSGVNYEPSRLEPRPADDKARYSELPLSGTTQQAKITREQNFKQAGDLYRSYSAKEKTDLVQKFGESLADTLTESKNIMLSYLYKEDPNYGTRVAEVAKGDLSKVKSLAASLKD	soluble
TEHLTLAFKIERPYDKVLKTISKKNLKNYIKETFNFFKSGYMKQNYLGSENDVIELDDVANIMFYGEGEVGDNHQKFMLIFDTGSANLWVPSKKCNSSGCSIKNLYDSSKSKSYEKDGTKVDITYGSGTVKGFFSKDLVTLGHLSMPYKFIEVTDTDDLEPIYSSVEFDGILGLGWKDLSIGSIDPIVVELKNQNKIDNALFTFYLPVHDVHAGYLTIGGIEEKFYEGNITYEKLNHDLYWQIDLDVHFGKQTMEKANVIVDSGTTTITAPSEFLNKFFANLNVIKVPFLPFYVTTCDNKEMPTLEFKSANNTYTLEPEYYMNPILEVDDTLCMITMLPVDIDSNTFILGDPFMRKYFTVFDYDKESVGFAIAKN	soluble
TGLLLSLIALSLQAAQLTASVDRTRLNAGETVELTLETDDVTQFGKPDMSSLEASFEVRDTRQLNSLKTLDGSSQATTRWIVTLLPRETGSVIIPSLQLGELKSQPLTLQVMQSETKEPTSHLASIFIEASLDQDSVYVQAQAVLTLRVYHSVSLFDDSSLN	soluble
THVYNYDIPQDPESYVHRIGRTGRAGATGTSVTFVTNWEMDYLRDVEHLTKKRLLPMKPPTEEEAFAGRAAMAEQSIEELVQKTDVAKFEEQVDHLLEQHDAKTLVAALLNEVTKSDASEIKVKITPERPLPR	not soluble
TIYLYKNSIPSGKNKGENAILIDNKTIVEQLESAAKKEDKKSGESTTEQTQIQSKSVTEQKQPKIIGYTTTGNVHEDNKHIFPIDKLTSDRNFDRKIIVGATEETLDKSNTLQSNEAIVLPAPSKYKSTDTNKVTITQGPNIIGIHVNEKENAETQKFVDW	soluble
TLAVAAGTGAYLIDKRQKQKAKEPALPAKAEDGSEPISQRELSWDDVQPVDIIGLEVGYRLIPLVDRDQGGELLERVKGVRKKLSQDFGFLIPAVHIRDNLELTPNSYRITLMGVAVGEAEIRPDQELAINPGQVYGMIDGEPTMDPAFGLEAVWIREEQREHAQALGYTVVDSSTVLATHLSQLLTNNASQLIGHEEVQNLLEMLGRSAPKLVENFVPDQLQLGVVVKVLQNLLNEAIPIRDIRTIVQTLAEYSSKSQEPDILTAAVRISLKRLIVQEINGIEPELPVITLIPELEQILHQTMQASGGESAGIEPGLAERLQSSLSHATQEQELKGEPAVLLTSGVLRSTLAKFVKNTIPNLRVLSYQEIPDEKQIRIVQAVGN	not soluble
TLEPTQSVQNYMIQADSTEGSLQNDWLIMATKAAIQANQLDQADLLIKRLARQQLTEVQQAEWQLARATIQQKQGDYSQLLQLLNFKPWWKLPNEQWKDYYSLRADAYQSLNQPFEANRQLVAFSQYASSAEQREISSRIWMNFGSYSEYELTSLQTEPSEDVLDGWLQLAVYAKTLSGNLSQLKNTLERWLNENPSHPAAIYTPEEIQNILSLDIVKPNNTALLLPLTGKFAPQAQLIRDGFVFAMMNDRNRDPSATLTVIDTNAYSADEVKQRLINENIDFVVGPLQKENVELLQTTMDGSANSPAIPALALNIPEDVQPGTDICYLALSPEQEVAQAAKYLFSEGYSFPLILAPKGSYGERVVQAFNEEWSKYSSNKVATSYFGDKRQLQKDINDVFGLQESKQRIAQMQSLMRIKLETQPRSRRDVDAVYIVARSSELTLIKPFIEVAINPDAKPPKLFSNSRSNSGGATYEDLTGIIYSDIPLLVNPDPIVTAEMNELWADQSNMEKRLKALGMDAYKLIGELPQMKVVPGYSVSGQTGTLSIDNNCVVQRELSWAERGAL	not soluble
TLPKPFIWAEPHFMVPKEKQVTICCQGNYGAVEYQLHFEGSLFAVDRPKPPERINKVKFYIPDMNSRMAGQYSCIYRVGELWSEPSNLLDLVVTEMYDTPTLSVHPGPEVISGEKVTFYCRLDTATSMFLLLKEGRSSHVQRGYGKVQAEFPLGPVTTAHRGTYRCFGSYNNHAWSFPSEPVKLLVTG	soluble
TLPRPFFILAPMEDVTNIVFRHVVSEAARPDVFFTEFTNTESYCHPEGIHSVRGRLTFSDDEQPMVAHIWGDKPEQFREMSIGLADMGFKGIDLNMGCPVANVAKKGKGSGLILRPETAAEIIQASKAGGLPVSVKTRLGYYDIDEWRDWLKHVFEQDIANLSIHLRTRKEMSKVDAHWELIEAIKTLRDEIAPNTLLTINGDIPDRQTGLELANKYGIDGIMIGRGIFHNPFAFEKEPREHSSKELLGL	not soluble
TPARDWNYTAPDGTVVEGWYYLPPQFDPSKKYPMLVYYYGGTSPINRTLEGHYSLAMYAAQGYVVYTLNPSGTTGYGQEYAARHVNAWGDRTADEIIGATKEFIRTHSFVNGKKVGCFGASYGGFMTQYLQTKTDIFAAAVSHAGISSISNYWGSGYWGMGYSTVASTDSYPWNNPDLYAGHSPLFRADKIHTPLLLLHGSVDTNVPTAESVNLYNALKILGREVEFIEFTEQDHFILEPERRIRWTNSICAWFARWL	not soluble
TPYRAMYQYRPQNEDELELREGDRVDVMQQCDDGWFVGVSRRTQKFGTFPGNYVAPV	soluble
TQAMEGLLHYINPAHAISLLSALNEERLKGQLCDVLLIVGDQKFRAHKNVLAASSEYFQSLFTNKENESQTVFQLDFCEPDAFDNVLNYIYSSSLFVEKSSLAAVQELGYSLGISFLTNIVSKTPQAPFPTCPNRKKVFVEDDENSSQKRSVIVCQSRNEAQGKTVSQNQPDVSHTSRPSPSIAVKANTNKPHVPKPIEPLHNLSLTEKSWPKDSSVVYAKSLEHSGSLDDPNRISLVKRNAVLPSKPLQDREAMDDKPGVSGQLPKGKALELALKRPRPPVLSVCSSSETPYLLKETNKGNGQGEDRNLLYYSKLGLVIPSSGSGSGNQSIDRSGPLVKSLLRRSLSMDSQVPVYSPSIDLKSSQGSSSVSSDAPGNVLCALSQKSSLKDCSEKTALDDRPQVLQPHRLRSFSASQSTDREGASPVTEVRIKTEPSSPLSDPSDIIRVTVGDAATTAAASSSSVTRDLSLKTEDDQKDMSRLPAKRRFQADRRLPFKKLKVNEHGSPVSEDNFEEGSSPTLLDADFPDSDLNKDEFGELEGTRPNKKFKCKHCLKIFRSTAGLHRHVNMYHNPEKPYACDICHKRFHTNFKVWTHCQTQHGIVKNPSPASSSHAVLDEKFQRKLIDIVREREIKKALIIKLRRGKPGFQGQSSSQAQQVIKRNLRSRAKGAYICTYCGKAYRFLSQFKQHIKMHPGEKPLGVNKVAKPKEHAPLASPVENKEVYQCRLCNAKLSSLLEQGSHERLCRNAAVCPYCSLRFFSPELKQEHESKCEYKKLTCLECMRTFKSSFSIWRHQVEVHNQNNMAPTENFSLPVLDHNGDVTGSSRPQSQPEPNKVNHIVTTKDDNVFSDSSEQVNFDSEDSSCLPEDLSLSKQLKIQVKEEPVEEAEEEAPEASTAPKEAGPSKEASLWPCEKCGKMFTVHKQLERHQELLCSVKPFICHVCNKAFRTNFRLWSHFQSHMSQASEESAHKESEVCPVPTNSPSPPPLPPPPPLPKIQPLEPDSPTGLSENPTPATEKLFVPQESDTLFYHAPPLSAITFKRQFMCKLCHRTFKTAFSLWSHEQTHN	soluble
TQDWNWNIGYNISYNKNKITKMTFNDDPNYAGVIHGGIDGGTGYNALIHRVGEAFNSFYVFEQIYGPDGKPIEGAYVDQNGDNQINDADLICFKKAAPDVFMGLTSQLSYKNWDFSFALRGSFGNYVYNNVQSNREAYEGANMYDQTGFLKNRLTSARSTDFKNAQYRSSYYVQNASFVRMDNISLGYTFNKLFNDKQSARVYATVQNPFVITKYKGLDPEISGEGIDNNIYPRPRVFMIGLNLNF	not soluble
TQKSLSNFLLSMQEAFSLGEEDRLLAVTTVAFDISALELYLPLISGAQIVIAKKETIREPQALAQMIENFDINIMQATPTLWHALVTSEPEKLRGLRVLVGGEALPSGLLQELQDLHCSVTNLYGPTETTIWSAAAFLEEGLKGVPPIGKP	not soluble
TSGTLYLVGTPIGNLDDMTFRAIATLKNVDLIAAEDTRHTGKLLKHFQIATPQISYHDHNRHQRQAQLLEKLRSGLNIALVSDAGLPGISDPGFELVASAIDTEITVVPIPGV	not soluble
